Test results from IntAct's records for PubMed 9874765.

Biological target: cir1_human CIR1 (UniProt Q86X95)
Sequence (Q86X95 whole entry): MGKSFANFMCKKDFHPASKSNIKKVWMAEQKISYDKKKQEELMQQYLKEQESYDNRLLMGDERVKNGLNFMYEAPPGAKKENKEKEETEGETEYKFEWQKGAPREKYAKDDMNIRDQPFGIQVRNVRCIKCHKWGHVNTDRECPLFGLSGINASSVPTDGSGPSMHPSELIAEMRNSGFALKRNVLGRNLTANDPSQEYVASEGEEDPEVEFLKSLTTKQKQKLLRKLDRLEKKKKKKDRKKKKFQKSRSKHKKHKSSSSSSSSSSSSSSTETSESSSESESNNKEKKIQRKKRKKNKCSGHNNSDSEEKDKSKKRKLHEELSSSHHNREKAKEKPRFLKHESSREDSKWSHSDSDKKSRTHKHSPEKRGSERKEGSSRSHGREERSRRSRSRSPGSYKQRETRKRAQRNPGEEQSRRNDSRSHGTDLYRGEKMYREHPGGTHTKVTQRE

Chain of Recombining binding protein suppressor of hairless (Homo sapiens), Q06330 K249A;L250A;V251A (Q06330 whole entry K249A/L250A/V251A): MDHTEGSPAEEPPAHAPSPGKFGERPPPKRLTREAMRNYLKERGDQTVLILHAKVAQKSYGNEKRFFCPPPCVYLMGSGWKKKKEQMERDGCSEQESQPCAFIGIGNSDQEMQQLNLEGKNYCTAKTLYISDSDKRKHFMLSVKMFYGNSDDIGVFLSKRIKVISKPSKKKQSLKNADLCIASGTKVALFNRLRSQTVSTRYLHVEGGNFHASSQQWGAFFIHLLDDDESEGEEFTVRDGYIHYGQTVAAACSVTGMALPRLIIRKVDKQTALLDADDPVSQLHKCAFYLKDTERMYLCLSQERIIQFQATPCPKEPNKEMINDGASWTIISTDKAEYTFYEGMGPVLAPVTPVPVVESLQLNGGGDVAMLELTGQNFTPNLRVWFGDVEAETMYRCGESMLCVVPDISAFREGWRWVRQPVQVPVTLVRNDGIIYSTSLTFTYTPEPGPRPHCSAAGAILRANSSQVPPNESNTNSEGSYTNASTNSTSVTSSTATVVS
Chain of Recombining binding protein suppressor of hairless (Homo sapiens), Q06330 E233A;E234A;F235A (Q06330 whole entry E233A/E234A/F235A): as the sequence (Q06330 whole entry K249A/L250A/V251A) above, with E233A, E234A, F235A, A249K, A250L, A251V counted along it

Row | effect of a mutation on the interaction | Substance
1 | disrupting interaction strength | Recombining binding protein suppressor of hairless (Homo sapiens), Q06330 E233A;E234A;F235A
2 | disrupting interaction strength | Recombining binding protein suppressor of hairless (Homo sapiens), Q06330 K249A;L250A;V251A
